This is an account of results in US20240140995A1 (ROCHE DIAGNOSTICS OPERATIONS, published 2024).

B1: E. coli IM-7, singly biotinylated (other)
chain: MELKNSISDYTEAEFVQLLKEIEKENVAATDDVLDVLLEHFVKITEHPDGTDLIYYPSDNRDDSPEGIVKEIKEWRAANGKPGFKQG
B2: E. coli ColE-7 (other)
chain: ESKRNKPGKATGKGKPVNNKWLNNAGKDLGSPVPDRIANKLRDKEFKSFDDFRKKFWEEVSKDPELSKQFSRNNNDRMKVGKAPKTRTQDVSGKRTSFELHHEKPISQNGGVYDMDNISVVTPKRHIDIHRGK

For experiment [1], the target named is B2. Put plainly: SPR Biacore T200, 37 C, single cycle kinetics; biotinylated immunity protein on streptavidin sensor, colicin analyte 1.1-90 nM. In general terms: In SPR one partner is held on a chip, and binding of the other changes the refractive index at the surface.
The target of experiment [2] is B2. Put plainly: SPR Biacore T200, 37 C, single cycle kinetics.
Experiment [3] deals with GthIM (Geobacillus thermoglucosidasius immunity protein, C18A, engineered), singly biotinylated (Geobacillus thermoglucosidasius). Put plainly: SPR Biacore T200, 37 C, single cycle kinetics; biotinylated immunity protein on streptavidin sensor, colicin analyte 1.1-90 nM.

A word on the Kd: it is the free concentration of one partner at which half of the binding sites on the other are occupied at equilibrium, for simple one-to-one binding. Lower therefore signals tighter binding. Usually koff stands for a measure of how fast the partners let go of each other. Lower therefore signals a long-lived complex. What is called kon is the rate constant with which the complex forms. A lower kon goes with slow association.

Where only a bound is given, the exact number is not on record here.

Consider B1, for which, in experiment [1], the Kd is below 0.0057 nM; the “MR (Molar Ratio, binding stoichiometry)” value was found to be 1.2; the koff was below 1e-05 s⁻¹; the kon turned out to be 1.8e+06 M⁻¹ s⁻¹. The “complex half-life t/2-diss” value in experiment [2] was above 19.2 h.

As to B2, in experiment [3], the Kd is 13 nM, the dissociation rate constant (koff) stood at 0.1 s⁻¹ and the kon came to 1e+07 M⁻¹ s⁻¹.
